Publication PMC3871271 (FEBS Open Bio, 2013)
Read-outs that look alike come from different tables or passages of the source.

What was measured:
Test in all cases: ITC
[1] = target: T1, C-terminal domain of Scherffelia dubia centrin, wild type (Scherffelia dubia, UniProt Q06827 93-168)
T1 sequence (looked up): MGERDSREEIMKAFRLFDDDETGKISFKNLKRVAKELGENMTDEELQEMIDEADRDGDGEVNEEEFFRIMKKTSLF

[2] = target: T1, C-terminal domain of Scherffelia dubia …; remark: listed apart in the source
[3] = target: T1, C-terminal domain of Scherffelia dubia …; remark: listed apart in the source
[4] = target: T1, C-terminal domain of Scherffelia dubia …; remark: listed apart in the source

B1: P17-XPC peptide (peptide)
peptide: Ac-NWKLLAKGLLIRERLKR-NH2
B1 was tested, and the Ka [1] was 5.94e+07 M⁻¹, the dH [1] was -23.4 kcal/mol and the Ka [2] was 3.02e+07 M⁻¹. The dH [2] was -33.8 kcal/mol, the dH [3] was -40.6 kcal/mol and the Ka [4] was 7.32e+07 M⁻¹. For the same binder, the dH [4] was -23.4 kcal/mol.
